Measurements from PMC5551644 (Biochemistry, 2016).
Like-named read-outs stand apart in the source and are kept apart here.

Assays:
Assay in all cases: SPR
[1] = biological target: T1, TGF-β type II receptor extracellular domain (UniProt P37173 23-166)
[2] = biological target: T1, TGF-β type II receptor extracellular …; remark: listed apart in the source
[3] = biological target: T1, TGF-β type II receptor extracellular …; remark: listed apart in the source

T1 sequence (P37173 23-166): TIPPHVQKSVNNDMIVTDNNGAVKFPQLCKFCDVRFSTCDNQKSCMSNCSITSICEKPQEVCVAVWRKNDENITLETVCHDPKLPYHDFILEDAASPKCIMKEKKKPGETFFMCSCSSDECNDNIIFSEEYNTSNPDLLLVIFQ

- Kd [1]: 2.9 ± 1.1 µM
- Kd [2]: 4.6 ± 0.7 µM
- Kd [3]: 9.4 ± 2.2 µM
B1: Transforming growth factor β2 (TGF-β2), recombinant human (ligand, UniProt P61812 303-414, looked up)
chain: ALDAAYCFRNVQDNCCLRPLYIDFKRDLGWKWIHEPKGYNANFCAGACPYLWSSDTQHSRVLSLYNTINPEASASPCCVSQDLEPLTILYYIGKTPKIEQLSNMIVKSCKCS
modifications: biotinylated for SPR (EZ-Link Amine-PEG3-biotin with EDC/Sulfo-NHS; for the experiments of Table S1 sulfo-NHS-LC-LC-Biotin)
